The results in this text go back to patent publication US20210238276A1 (INTEGRAL MOLECULAR, published 2021).

Residue numbers refer to the chain shown, from its start.

Experiment in all cases: flow cytometry, alanine-scan library in HEK-293T, with cytochalasin B
The target of one test is T1, hsGLUT4 L247A (human, UniProt P14672 1-509).
T1 sequence: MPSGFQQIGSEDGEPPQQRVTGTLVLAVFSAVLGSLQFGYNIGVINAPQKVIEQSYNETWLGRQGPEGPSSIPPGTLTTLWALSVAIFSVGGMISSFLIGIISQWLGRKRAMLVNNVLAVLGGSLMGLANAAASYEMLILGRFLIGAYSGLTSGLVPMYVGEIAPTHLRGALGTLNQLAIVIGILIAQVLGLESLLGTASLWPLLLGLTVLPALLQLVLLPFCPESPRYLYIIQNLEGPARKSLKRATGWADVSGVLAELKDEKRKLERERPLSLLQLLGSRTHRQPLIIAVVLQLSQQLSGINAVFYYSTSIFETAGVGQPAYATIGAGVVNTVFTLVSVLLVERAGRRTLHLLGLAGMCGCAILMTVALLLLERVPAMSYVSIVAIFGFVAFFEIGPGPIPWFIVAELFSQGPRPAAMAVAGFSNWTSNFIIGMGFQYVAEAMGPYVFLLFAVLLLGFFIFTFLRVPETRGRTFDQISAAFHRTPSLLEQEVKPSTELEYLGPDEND
Here is the method: (§1) Because of the state-dependence of the isolated MAbs, we next wished to understand the mechanism by which each MAb could recognize GLUT4 in its different conformations. The residues required for binding of each MAb were determined using shotgun mutagenesis comprehensive alanine scanning (Davidson E & Doranz B J (2014) A High-Throughput Shotgun Mutagenesis Approach to Mapping B-cell Antibody Epitopes. Immunology, which is hereby incorporated by reference in its entirety). All residues of hsGLUT4 were individually mutated to alanine, with existing alanines changed to serines. Mutations were obtained for 508 of the 509 residues of GLUT4 (excluding the initiating methionine). The entire mutation library was transfected into human HEK-293T cells in a 384-well array format (one clone per well) and assessed for immunoreactivity using high-throughput flow cytometry.
(§2) HEK-293T cells were transfected by CaPO₄ with plasmids in 6-well culture plates (Falcon) at 750,000 cells/well. At 48 hours post transfection, cells were stained with anti-V5 and anti-GLUT4 MAbs (purified scFv, 2 μg/ml) followed by biotinylated goat anti-mouse or human antibody (1:500) and streptavidin-PerCP (1:500). Fluorescence was detected using an Intellicyt high-throughput flow cytometer (HTFC; Intellicyt, Albuquerque, N. Mex.). For cell permeabilization, cells were treated with saponin at 0.1% in PBS for 20 minutes. To discriminate intact (live) and permeabilized (dead) cells without the use of detergent, propidium iodide (PI) was added to HEK-293T cells at 1 ug/ml just prior to flow cytometry. Where indicated, cytochalasin B (Sigma) was used at a final concentration of 10 uM and phloretin (Sigma) was used at a final concentration of 100 uM, each added in 10% NGS for 30 minutes prior to antibody staining as well as included with the primary antibody.

The target of another test is T2, hsGLUT4 Q298A (human, UniProt P14672 1-509).
T2 sequence: T1 sequence with A247L, Q298A
As to the method:
as §1, §2

Another test concerns the target T3, hsGLUT4 M158A (human, UniProt P14672 1-509).
T3 sequence: T1 sequence with M158A, A247L
Here is the method:
as §1, §2

In another test the target is T4, hsGLUT4 D506A (human, UniProt P14672 1-509).
T4 sequence: T1 sequence with A247L, D506A
As to the method: as §1, §2

B1: AB102 (Fc fusion)
scFv: ALTQPSSVSANLGGTVKITCSGGGSYGYGWYQQKSPGSAPVTVIYSNDQRPSDIPSRFSGSKSGSTATLTITGVRAEDEAIYYCGSTDSDYVGIFGAGTTLTVLGQSSRSSGGGGSSGGGGSAVTLDESGGGLQTPGGTLSLVCKASGFDFSSYATIWVRQAPGKGLEWVAGISGTGTGSSTGYAPAVKGRATISRDNGQSTVRLQLNNLRAEDTGSYFCAKSTGYGDSWIYPDSIDAWGHGTEVIVSS
notes: also called MAb AB102; not shown: Fc fragment of human IgG1, cloned in frame with the scFv
B1: the “% of binding to wild type GLUT4” value with hsGLUT4 L247A worked out at 15%; with hsGLUT4 Q298A, 107%; with hsGLUT4 M158A it was 85%; in the test with hsGLUT4 D506A, 60%.
